The star is where a group is joined. Biotin = O=C1N[C@H]2[C@H](CS[C@H]2CCCCC(=O)*)N1; Ttds = NCCCOCCOCCOCCCNC(=O)CCC(=O)*
Experiments:
[1] = target: T1, recombinant human α-mannosidase (LAMAN) (human, UniProt O00754 50-1011, limits assumed); test: pulldown with biotinylated peptide on streptavidin beads, neutral pH, coomassie
T1 sequence (looked up): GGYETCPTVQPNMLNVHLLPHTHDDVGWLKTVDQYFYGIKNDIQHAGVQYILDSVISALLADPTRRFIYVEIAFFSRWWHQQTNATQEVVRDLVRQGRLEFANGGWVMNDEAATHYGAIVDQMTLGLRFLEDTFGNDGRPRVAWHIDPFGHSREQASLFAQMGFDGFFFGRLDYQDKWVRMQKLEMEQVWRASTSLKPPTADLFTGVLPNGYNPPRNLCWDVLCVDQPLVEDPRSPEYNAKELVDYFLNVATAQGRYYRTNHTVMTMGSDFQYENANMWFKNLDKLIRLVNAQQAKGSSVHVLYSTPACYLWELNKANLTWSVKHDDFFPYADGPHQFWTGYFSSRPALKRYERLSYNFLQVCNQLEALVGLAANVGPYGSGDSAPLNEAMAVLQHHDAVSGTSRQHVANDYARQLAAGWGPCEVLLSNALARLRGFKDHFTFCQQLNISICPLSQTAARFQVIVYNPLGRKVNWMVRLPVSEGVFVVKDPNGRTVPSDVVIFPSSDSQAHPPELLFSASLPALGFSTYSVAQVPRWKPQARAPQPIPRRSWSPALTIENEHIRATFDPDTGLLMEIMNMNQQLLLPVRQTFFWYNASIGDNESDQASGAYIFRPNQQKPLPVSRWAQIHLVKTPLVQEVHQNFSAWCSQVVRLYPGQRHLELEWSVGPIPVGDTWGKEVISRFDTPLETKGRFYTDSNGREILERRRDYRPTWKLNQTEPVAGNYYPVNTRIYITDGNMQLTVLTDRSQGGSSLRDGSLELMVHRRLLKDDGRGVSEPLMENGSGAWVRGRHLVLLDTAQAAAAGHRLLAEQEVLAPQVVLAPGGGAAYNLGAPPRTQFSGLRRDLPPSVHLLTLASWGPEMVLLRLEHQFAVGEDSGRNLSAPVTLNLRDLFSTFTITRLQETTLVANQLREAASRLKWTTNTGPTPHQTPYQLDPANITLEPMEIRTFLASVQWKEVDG

[2] = target: bovine serum albumin (BSA) (bovine, UniProt P02769 25-607); test: as above
bovine serum albumin (BSA), sequence (P02769 25-607 limits assumed): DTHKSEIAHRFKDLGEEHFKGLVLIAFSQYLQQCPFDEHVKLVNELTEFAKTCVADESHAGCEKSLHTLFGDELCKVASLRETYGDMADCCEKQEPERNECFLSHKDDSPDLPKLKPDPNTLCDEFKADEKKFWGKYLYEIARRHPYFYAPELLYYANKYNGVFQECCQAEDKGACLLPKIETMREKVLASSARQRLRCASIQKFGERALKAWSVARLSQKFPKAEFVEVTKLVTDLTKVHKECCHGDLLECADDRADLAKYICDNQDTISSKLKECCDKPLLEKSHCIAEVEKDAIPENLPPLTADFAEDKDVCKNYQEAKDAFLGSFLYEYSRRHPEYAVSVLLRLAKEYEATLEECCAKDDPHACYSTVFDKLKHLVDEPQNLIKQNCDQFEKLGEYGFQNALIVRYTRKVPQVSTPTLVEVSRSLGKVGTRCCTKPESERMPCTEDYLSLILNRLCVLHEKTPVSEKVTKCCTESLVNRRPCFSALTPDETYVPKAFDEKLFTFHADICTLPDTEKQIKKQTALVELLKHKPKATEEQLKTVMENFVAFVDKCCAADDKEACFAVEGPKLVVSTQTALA

B1: Helix 5 peptide (LIMP-2-derived, L152-E175) (peptide)
peptide: {Biotin-Ttds}-LREIIEAMLKAYQQKLFVTHTVDE-OH
notes: Synthetic peptide from jpt Peptide Technologies; also called wild-type helix 5 peptide; LIMP-2-derived helix 5 peptide
B1: no binding [1]; no binding [2].
